One block for each molecule: values may come before it.
Target: human IL-23 (human) (UniProt Q9NPF7)
Chain of UniProt Q9NPF7 (Q9NPF7 20-189, chain 1 of 2): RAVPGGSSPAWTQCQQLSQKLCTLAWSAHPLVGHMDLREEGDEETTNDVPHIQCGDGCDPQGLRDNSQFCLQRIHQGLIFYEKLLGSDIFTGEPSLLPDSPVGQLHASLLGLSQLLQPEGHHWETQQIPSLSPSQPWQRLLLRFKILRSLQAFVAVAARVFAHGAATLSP
Chain of UniProt Q9NPF7 (chain, as listed by the source, chain 2 of 2): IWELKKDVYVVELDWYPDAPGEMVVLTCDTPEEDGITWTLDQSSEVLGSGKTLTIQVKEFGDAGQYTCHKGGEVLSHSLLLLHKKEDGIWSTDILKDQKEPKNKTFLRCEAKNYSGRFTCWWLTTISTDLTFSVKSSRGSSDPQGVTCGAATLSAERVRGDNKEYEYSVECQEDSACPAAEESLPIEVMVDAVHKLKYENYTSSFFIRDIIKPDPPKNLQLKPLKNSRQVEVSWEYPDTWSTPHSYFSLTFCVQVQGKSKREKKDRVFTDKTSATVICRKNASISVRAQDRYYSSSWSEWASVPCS

IL-23 stimulated IL-17 production: 167 pM
Molecule: ustekinumab (antibody)

IL-23 stimulated IL-17 production: < 10 pM
B1: Risankizumab (antibody, V domains shown)
VH: QVQLVQSGAEVKKPGSSVKVSCKASGYTFTDQTIHWMRQAPGQGLEWIGYIYPRDDSPKYNENFKGKVTITADKSTSTAYMELSSLRSEDTAVYYCAIPDRSGYAWFIYWGQGTLVTVSS
VL: DIQMTQSPSSLSASVGDRVTITCKASRDVAIAVAWYQQKPGKVPKLLIYWASTRHTGVPSRFSGSGSRTDFTLTISSLQPEDVADYFCHQYSSYPFTFGSGTKLEIKR

— patent US20220259301A1
